Reference: the DeepSol protein solubility set

Experiment: soluble on expression in E. coli; label from the status in PepcDB or PDB records

Question: Which “soluble on expression in E. coli” value does the source give for “MTDARPRICILGGGFGGLYTALRLGQLSWEGHTPPEIVLVDQRDRFLFAPFLYELVTEEMQTWEIAPPFVELLAESGVIFRQAEVTAIDFDHQKVLLNDQDKGTESLAFDQLVIALGGQTPLPNLPGLKDYGLGFRTLEDAYKLKQKLKSLEQADAEKIRIAIVGGGYSGVELAAKLGDRLGERGRIRIIERGKEILAMSPEFNRQQAQASLSAKGIWVDTETTVTAITATDVTLQFREQEDVIPVDLVLWTVGTTVSPLIRNLALPHNDQGQLRTNAQLQVEGKTNIFALGDGAEGRDASGQLIPTTAQGAFQQTDYCAWNIWANLTGRPLLPCRYQPLGEMLALGTDGAVLSGLGIKLSGPAALLARRLVYLYRFPTWQHQLTVGLNWLTRPLGDWLKNEPSLEHHHHHH” here?
Answer: The value was “not soluble”.

Question: For “MTDDRVEQVLEAARRLVAAFARNDAEAYFAAFSEDASFIFHNWPQPLRSRAAYRKLWERWRREDGFEVLACESSNTCVSLQGDLAIFSHDVATRLRLQGTESLNRERETILFRLEQQEGRWLACHEHLSAMPEYLPSTS”, which “soluble on expression in E. coli” value is on record?
Answer: The value was “not soluble”.

Question: Which “soluble on expression in E. coli” value does the source give for “MTDDSAVESKQKKSKIRKGHWIPVVAGFLRKDGKILVGQRPENNSLAGQWEFPGGKIENGETPEEALARELNEELGIEAEVGELKLACTHSYGDVGILILFYEILYWKGEPRAKHHMMLEWIHPEELKHRNIPEANRKILHKIYKALGLEWRK” here?
Answer: Its value is “soluble”.

Question: With “MTDEVILANATLVLRGETVTGSLHIKGETIAGIDQGAHVPAGAVDCEGDFVSPGLVELHTDNLERHIQPRPKVDWPHAAAILAHDAELAGTGITTVFDAMRVGSIPSGAGRYLQYARNLSRELWQLREASALKISHFLHLRAEVCSETLVEELDEFAPEDRVGLVSLMDHTPGQRQFRDMTKLEAYMKGKHAMSDDTFLQHVSQLKGLRDRYGDRHEIETVKAARRLGSVLASHDDTTAEQVAVSAGHGIRLAEFPTTIEAAEACHAHGIKVIMGAPNLIRGGSHSGNVAAADLAERGLLDILSSDYVPSALLLSAVRLGALWGDMARGMATVTRTPAQAVGLDDRGEIAPGLRADLIRFRMSQDVPALQSVWSRGRRVA” as the sequence, how does the “soluble on expression in E. coli” value read?
Answer: The value was “not soluble”.

Question: With “MTDQLRLMAVHAHPDDESSKGAATMAKYVSEGVDVLVVTCTGGERGSILNPKLQGDAYIEENIHEVRRKEMDEAREILGVGQEWLGFVDSGLPEGDPLPPLPEGCFALEDVDKAAGELVRKIRSFRPQVITTYDENGGYPHPDHIMTHKITMVAFEGAADTEKYPESEYGTAYQPLKVYYNQGFNRPRTEALHHALLDRGLESPYEDWLKRWSEFERKERTLTTHVPCADFFEIRDKALIAHATQIDPEGGWFRVPMEIQKEVWPTEEYELAKSLVETSLPEDDLFAGIRDNALEHHHHHH” as the sequence, how does the “soluble on expression in E. coli” value read?
Answer: The value was “not soluble”.

Question: With “MTDTIEAKANMQTVSALPPEETERLGTEIVAALKTVFDPEIPADIYELGLIYKVEIKDDRTVDIDMTLTTPNCPAAAELPTMVENAVASVPGVGVVNVNIVWEPPWTPERMSDEARLVLNMW” as the sequence, how does the “soluble on expression in E. coli” value read?
Answer: The value was “not soluble”.

Question: Which “soluble on expression in E. coli” value does the source give for “MTDVIKPDYLEYDDLLDRDEMFTILEEYFMYRGLLGLRIKYGRLFNEIKKFDNDAEEQFGTIEELKQKLRLNSEEGADNFIDYIKVQKQDIVKLTVYDCISMIGLCACVVDVWRNEKLFSRWKYCLRAIKLFINDHMLDKIKSILQNRLVYVEMSKHHHHHH” here?
Answer: Its value is “soluble”.

Question: For “MTDVLPTIELFDGIAEELDNVSLRRDRQSGTRNVLLRFRALKALDRFNSFRSRFSKAIRLTDSEGAIELWPDSSKLVFGGDDGDELDRVEFVVPIDNEDHWQRFMRFMERYAAANDMTYGDRQALEHHHHHH”, which “soluble on expression in E. coli” value is on record?
Answer: The value was “soluble”.

Question: With “MTEAEILRLIRRVSGISQQADEQTTQPDSVTAENYARVVAEVMRRDGIQLNDADMRDIRIRVLEMLAYNRRVELYREKEKITYHWKKPERLRR” as the sequence, how does the “soluble on expression in E. coli” value read?
Answer: Its value is “not soluble”.

Question: With “MTEEFNESMINDIKEGDKVTGEVQQVEDKQVVVHINGGKFNGIIPISQLSTHHIENPSEVVKVGDEVEAYVTKIEFDEENDTGAYILSKRQLETEKSYEYLQEKLDNDEVIEAEVTEVVKGGLVVDVGQRGFVPASLISTDFIEDFSVFDGQTIRIKVEELDPENNRVILSRKAVEQLENDAKKASILDSLNEGDVIDGKVARLTNFGAFINIGGVDGLVHVSELSHGTCSNTRRSCVSRLEHHHHHH” as the sequence, how does the “soluble on expression in E. coli” value read?
Answer: Its value is “soluble”.

Question: Which “soluble on expression in E. coli” value does the source give for “MTEIYEQAKHSLQGEDFSSFNYLFAVNKLLSNPVSYDLGRDLIVRALDSRERFSEHTTILKNMVRKSGLFPYLKKEFTSLTPDDLRVLELYRTPFSDGYVFHSMQFHIFDLLKSGQNVVLSAPTSMGKSAIVDSLLGMGTLKRLVLVVPTVALADETRRRLQERFGDRYQIIHHSSQVCHSDQAVYVLTQERVNERDDIVDIDLFVIDEFYKLAFRQLKSGDIDHQDERVIELNIALSKLLKVSRQFYLTGPFVNSIRGLEKLGYPHTFVSTDFNTVALDVKTFGIKANDDKAKLKALGEIAHACVDATIIYCKSPTVAGLVARELIRLGHGTPTENPHVDWVSEEFDADWDYTVALRNGIGLHFGALPRALQQYTADQFNAGKLRFLLCTSTIIEGVNTIAKNVVIYDNRDGTRSIDKFTHGNIKGRAGRMGVHFVGKIFCLEEIPEDNLNQEVDIPLGIQGIDTPINLLASVQPDHLSEFSQDRFDEVFINDRVSIDLVKKHSYFRVEQFEMLQSMFEMMDDNEFSSLVFHWTPATNFLKTFAKIIARLVPHTFSRNGVPVKPTDVMIAKLAGYLSAESYSEYLKNQIDYARQWISEGEKRTLSIALNNDLKLITNTFGYTLPKVLSLMEDVVKHHAVKRGIRSKVDYTHVKLAFESFHLPPGVNALEEIGIPIQTLHRLVDLLEFSDEADVDELSQYLRDTQDIWSRSIGYVDQMFIRRALGIRRH” here?
Answer: Its value is “not soluble”.

Question: Which “soluble on expression in E. coli” value does the source give for “MTEMKILIVTLTYIEKSIIDEIVNNLSSYGLEVDILLDSRKYLPISAFNWERLQYDAEKVLSFLKSIHDFNYDSIIFLADSDGYIDGYNFVFGLTIDNFAIIFLHRLREEFYNRKPDLDLFMKRVVKEVTHEVGHTLGLSHCNTTGCVMNFSNSVEDVDKKQAKFCKNCAHKIEKLSKYLQQKLEHHHHHH” here?
Answer: Its value is “not soluble”.

Question: Which “soluble on expression in E. coli” value does the source give for “MTENIHKHRILILDFGSQYTQLVARRVRELGVYCELWAWDVTEAQIRDFNPSGIILSGGPESTTEENSPRAPQYVFEAGVPVFGVCYGMQTMAMQLGGHVEASNEREFGYAQVEVVNDSALVRGIEDALTADGKPLLDVWMSHGDKVTAIPSDFITVASTESCPFAIMANEEKRFYGVQFHPEVTHTRQGMRMLERFVRDICQCEALWTPAKIIDDAVARIREQVGDDKVILGLSGGVDSSVTAMLLHRAIGKNLTCVFVDNGLLRLNEAEQVLDMFGDHFGLNIVHVPAEDRFLSALAGENDPEAKRKIIGRVFVEVFDEEALKLEDVKWLAQGTIYPDVIESAASATGKAHVIKSHHNVGGLPKEMKMGLVEPLKELFKDEVRKIGLELGLPYDMLYRHPFPGPGLGVRVLGEVKKEYCDLLRRADAIFIEELRKADLYDKVSQAFTVFLPVRSVGVMGDGRKYDWVVSLRAVETIDFMTAHWAHLPYDFLGRVSNRIINEVNGISRVVYDISGKPPATIEWE” here?
Answer: Its value is “soluble”.

Question: For “MTEPGERRRRTTSTATRERGVRDARDAARRAADALSELIRHHLEGVSAVCRGEDGGWIVNVDVLEVARIPDTTSLLATYEVELDPAGDLLQYRRIARYRRGAQDQLEHHHHHH”, which “soluble on expression in E. coli” value is on record?
Answer: Its value is “not soluble”.

Question: With “MTEQTILMGNLNEVAKKAAQWLINRKPIKSIIDWGISFSLWPPHFTTSCCGTEFGAFAAARFDAERYGMLPFSSARQSNILILEGTLSRKMGRAARIVYDQMPEPKYVIALGACILEGGIFWNSYNTVLPSDIGIPVDLYVPGCPIRPEAVARAVLMLQKKIRTQGALKT” as the sequence, how does the “soluble on expression in E. coli” value read?
Answer: The value was “not soluble”.

Question: For “MTETDKKQEQENHAECEDKPKPCCVCKPEKEERDTCILFNGQDSEKCKEFIEKYKECMKGYGFEVPSAN”, which “soluble on expression in E. coli” value is on record?
Answer: Its value is “soluble”.

Question: Which “soluble on expression in E. coli” value does the source give for “MTETEQTTAPIYPLKRNWTWWYLNDERNKSWEDRLKKVYTFNTVSEFWALYDAIRPPSGLNALCDYNVFRDDIQPMWEVPENSNGGRWLIVIDKGKTPEMVDAIWLEILMALVGEQFGKDMESICGLVCNVRGKGSKISVWTKDCNDDETNMRIGVVLKEKLMAASKDHSKPLFDVIRYEDHESCQKKTSSVVKAKLSLHSSDAPVAEKSAV” here?
Answer: The value was “not soluble”.

Question: Which “soluble on expression in E. coli” value does the source give for “MTFTGLPPEDVPALMTGAVIPHPSVAGRADAYLPSPCIQNHAANLAFLPDGTLSCVWFGGTMEGMRDISIYMSRLPPGSGRWSEPEKMSDDPEKSEQNPLIFNAPDGKTWLLYTSQTSGNQDGSIVKCRISDDGGKTFGPVQILCDSPGTFVRQQIVVNDRGDWLLPIFRCVGLEGQRWSGDADTAAVLISRDGGASWQMRDIPDSIGAVHMNILPLGGCEMIAFYRNRFAETILSSRSADGGETWSPPEPTELPNNNSSIQATVLDNGGIAMVYNHSNATMSDARRQSLYDEIEGDECGENAAVVADAGRKAVWGVPRAPLSLAISRDGGRTFPHRIDLDTGDGFCLSNNSKDSLNREFSYPSVIEGSDGTLHVAYTYYRRAIKYVRLAPRALPLEHHHHHH” here?
Answer: The value was “soluble”.

Question: With “MTGAVCPGSFDPVTLGHVDIFERAAAQFDEVVVAILVNPAKTGMFDLDERIAMVKESTTHLPNLRVQVGHGLVVDFVRSCGMTAIVKGLRTGTDFEYELQMAQMNKHIAGVDTFFVATAPRYSFVSSSLAKEVAMLGGDVSELLPEPVNRRLRDRLNTERT” as the sequence, how does the “soluble on expression in E. coli” value read?
Answer: Its value is “not soluble”.

Question: With “MTGDHIKVIYFNGRGRAESIRMTLVAAGVNYEDERISFQDWPKIKPTIPGGRLPAVKITDNHGHVKWMVESLAIARYMAKKHHMMGGTEEEYYNVEKLIGQAEDLEHEYYKTLMKPEEEKQKIIKEILNGKVPVLLDIICESLKASTGKLAVGDKVTLADLVLIAVIDHVTDLDKEFLTGKYPEIHKHRENLLASSPRLAKYLSDRAATPF” as the sequence, how does the “soluble on expression in E. coli” value read?
Answer: The value was “soluble”.

Question: With “MTGLINAIPATNKDEYKNVGVYIEHRGDELKRPSIEMIGIGKQLARKVNEKLICVVIGDKVDGIAKEVGEYGCDIVLAAESPELAEYRTMPYAEIIGGYIQEYKPNIFLLAATRNGRDLASRIAVKSRTGITADCTVLDIDENRTLLANRPTYGESTLAEILCRNHRPQMATARPGIFPPAEKEKDHKYEVIKKKVDVDKKLLGKQILKFI” as the sequence, how does the “soluble on expression in E. coli” value read?
Answer: The value was “not soluble”.

Question: For “MTGRLQNKVIVITGASSGIGEQVAMQVAEQGATPVLMARTEEKLKALADKIKETYNTPCYYYVLDVSEETEVQSVFSKVLQEVGRIDILVNNAGFGIFKTFEDASMDEVKDMFQVNVFGLVACTKAVLPYMVKRNEGHIINIASLAGKIATPKSSAYAATKHAVLGFTNSLRMELSSTNVFVTAINPGPIDTNFFEIADQSGTYVKNMGRYMLKPTYVAEQIVKSMQTKKREVNLPKWMGIGPKLYALFPGLFERVAGKSLSKK”, which “soluble on expression in E. coli” value is on record?
Answer: Its value is “not soluble”.

Question: With “MTGSQVIDAEEDRHKLVVEYKDALQPADFYHNFKQRGIRSVQLIPYLEFDDRGDLTAASVTAELWGKFLIALFECWVRADISRISIELFDATLQKWCGSENPQPRCDCQACDWHRLCPHARQETPDSVLCAGYQAFYSYSAPHMRVMRDLIKQHRSPMELMTMLR” as the sequence, how does the “soluble on expression in E. coli” value read?
Answer: The value was “not soluble”.

Question: Which “soluble on expression in E. coli” value does the source give for “MTGTSNIPTHGKEHKDAPALLPLPAPNPHHTHAAHPGNPSHDRPPSRGKLFIKTHGCQMNEYDSAKMADVLTTTEALELTDNPEEADIILINTCSIREKAQEKVFSQLGRWRALKTSGRDVIIGVGGCVASQEGEAIVKRAPYVDLVFGPQTLHRLPDMIRARREQNRPQVDIRFPEIEKFDHLPTPRAEGPSAFVSIMEGCSKYCSFCVVPYTRGEEVSRPFEDVLTEIAHLATQGVREINLLGQNVNAYRGAMDPGPSNNTNPAPPPYADLGLLIRAIAQFESIGRIRFTTSHPLEFSDSLVEAYRDVPQLANHLHLPVQSGSDRILSAMKRGYTALEFKSKIRKLRAVRPDISISSDFIIGFPGESDTDFQKTMQLIEDIGFDQSFSFIYSRRPGTPASNLEDHTPDEIKRTRLEHLQKHINTYAADISKRMIGTVQTVLVEGPSKKNPNELTGKTENMRPVNFPGHPRLIGQFIDVHITEALSNSLRGRVHTNLEHHHHHH” here?
Answer: Its value is “soluble”.
